The record followed here is article PMC11148069 (2024).

Experiment [1] addresses xhNup93-Nb3t. Description: BLI.
Experiment [2] addresses xNup93-Nb1t. Description: BLI.

B1: recombinant Xenopus Nup93 target (BLI) (natural protein)
chain: MDGEGFGELLQQAEQLAAETEGVTELPHVERNLQEIQQAGERLRSKTMTRTSQESANVKASVLLGSRGLDISHISQRLESLSAATTFEPLEPVKDTDIQGFLKNEKDNALLSAIEESRKRTFVMAEEYHRESMLVEWEQVKQRVLHTLLASGEDALDFTQESETSYISESGAPGRSSLDNVEMAYARQMYMYNEKVVSGHLQPSLVDLCTEAAERLDDKNVSDLWVMVKQMTDVPLIPASDTLKSRCSGQMQMAFVRQALNYLEQSYKNYTLISVFANLQQAQLGGVPGTYNLVRSFLNIRLPTPIPGLQDGEIEGYPVWALIYYCMRCGDLMAAQQVVNRAQHQLGDFKNCFQEYIHNKDRRLSPTTENKLRLHYRRAVRASTDPYKRAVYCIIGRCDVSDNHSEVADKTEDYLWLKLSQVCFEDEANSSPQDRLTLPQFQKQLFEDYGESHFAVNQQPYLYFQVLFLTAQFEAAIAFLFRLERTRCHAVHVALALFELKLLLKSTGQSAQLLSQEPGEPQGVRRLNFIRLLMLYTRKFEPTDPREALQYFYFLRNEKDNQGESMFLRCVSELVIESREFDMLLGKLEKDGSRKPGAIDKFTRDTKTIINKVASVAENKGLFEEAAKLYDLAKNPDKVLELTNKLLSPVVSQISAPQSNRERLKNMALAIAERYKSQGVSAEKSINSTFYLLLDLITFFDEYHAGHIDLSFDVIERLKLVPLSQDSVEERVAAFRNFSDEIRHNLSEILLATMNILFTQYKRLKGSGPTTLGRPQRVQEDKDSVLRSQARALITFAGMIPYRMSGDTNARLVQMEVLMN
For B1, the Kd in experiment [1] was below 0.01 nM; in experiment [2] it was 0.1 nM.
